What is called Km is the concentration of substrate that gives half-maximal velocity.

This note sets out measurements from ChEMBL document CHEMBL1155708, “Isoaurostatin, a novel topoisomerase inhibitor produced by Thermomonospora alba” (J Nat Prod, 2001).

Substrate in the series: O=C1Oc2cc(O)ccc2/C1=C\c1ccc(O)cc1
The settings on record: Bos taurus.

Description: Activity at calf thymus gland topoisomerase 1 assessed as conversion of supercoiled pBR322 DNA to relaxed form by Lineweaver-Burke plot

B1: DNA topoisomerase (Bos taurus), A0JN73 (protein)
chain: MIFPAAHRALRGLPRPGTRALTRAAMEVALRGVRKILCVAEKNDAAKGIADLLSGGRMRRREGLSRFNKIYEFDYHLCGQNVTMVMTSVSGHLLAHDFRMQFRKWQSCNPLVLFEAEIEKYCPENFVDIKKTLEREAQQCQALVIWTDCDREGENIGFEVIHVCKAVKPSLQVLRARFSEITTRAVRTACENLTEPDQRVSDAVDVRQELDLRIGAAFTRFQTLRLQKIFPEVLAEQLISYGSCQFPTLGFVVERFKAIQAFVPEVFHKIRVTHDHRDGVVEFSWKRHRLFNHTACLVLYQMCMEDPRAMVVEVRSKAKSKWRPQALDTVELEKLASRKLRINAKETMRIAEKLYTQGYISYPRTETNIFPKDLDLAALVEQQTPDPRWGAFARNILERGGPTPRNGNKSDQAHPPIHPTKYTDSLQGDEQRLYELIVRHFLACCSQDAQGQETTVEIDIAQERFVAHGLMILARNYLDVYPYDRWSDKTLPVYEQGTCFQPSTVEMVDGETSPPQLLTEADLIALMEKHGIGTDATHAEHIETIKARMYVGLTPDKRFLPGHLGMGLVEGYDSMGYEMSKPDLRAELEADLKLICEGKKDKLVVLHQQVQKYKQVFIEAVAKARKLDEALSQYFGAATEVAPQDALPAVPEPIRKCPQCSRDMVLKTRKSGGFYLGCTGFPECRSAVWFPDSVLEASRDVSVCPVCQPHPVYRLKFKFKRGSLPPTMPLEFVGCIGGCDETLREILALRFSQGAARVSQPASQTSGYLQASQSLNRMDSGQQGQPRPPVTRPSKALTRTLPPPAVESESNSVTCNCGQEALLLTVRKEGPNQGRQFYKCGSGGCSFFLWADSGHPGAGPPSSASRPPGGPLEHPPGSGTLLGGSSRPGSGGSGGASCLCGQPAVTRTVQKEGPNQGRQFHTCAQPREHQCGFFQWVDENVAPGTFGGPLWPGSRRGTQGLEARSKRPRAGSSDTGSATKKPRKCSLCHQPGHTRPFCPQNR
For B1, the Km was 0.0111 µM.
